Assay [1] addresses T1, human CD112R antigen protein huCD112R-His (Acro Biosysterm, PVG-H52H4) (human, UniProt Q6DKI7 41-171).
T1 construct: purchased; also called human antigen protein; not shown: His tag
T1 sequence (looked up): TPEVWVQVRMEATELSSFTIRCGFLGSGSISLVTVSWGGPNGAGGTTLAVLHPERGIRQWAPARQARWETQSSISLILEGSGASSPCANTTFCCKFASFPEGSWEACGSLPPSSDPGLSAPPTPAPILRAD
As to the kind of experiment: ELISA, huCD112R-His coated on plate.

The target of assay [2] is T2, monkey antigen protein (monkey CD112R, Uniprot ID: A0A2K5WVV8) (monkey, UniProt A0A2K5WVV8 41-171).
T2 sequence: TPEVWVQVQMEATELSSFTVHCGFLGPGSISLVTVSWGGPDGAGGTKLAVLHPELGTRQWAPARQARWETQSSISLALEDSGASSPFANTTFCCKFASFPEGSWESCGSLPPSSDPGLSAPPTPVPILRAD
The assay can be described thus: ELISA, monkey antigen protein (as Example 6.1).

B1: C123 (antibody, human IgG1, kappa, V domains shown)
VH: EVQLVESGGGLVKPGGSLKLSCAASGFTFSNFAMSWVRQTPAMRLESVATIVNGGINTYYPDTVKGRFTVSRDNAKNTLYLQMSSLRSEDTAIYYCARHDDFLYYAMDYWGQGTSVTVSS
VL: QIVLTQSPAIMSASPGEKVTMTCSASSSVSYMFWYQQKPGSSPRLLIYDTSNLASGVPVRFSGSGSGTSYSLTISRLEAEDAATYYCQQWTSYPLTFGAGTKLDLKR
Take B1: the EC50 in assay [1] was determined as 0.035 nM; in assay [2] it was 0.056 nM.

B2: C143 (antibody, human IgG1, kappa, V domains shown)
VH: EVQLVESGGGLVKPGGSLKLSCAASGFTFSNFAMSWVRQTPAMRLESVATIVNGGINTYYPDTVKGRFTVSRDNAKNTLYLQMSSLRSEDTAIYYCARHDDFLYYAMDYWGQGTSVTVSS
VL: QIVLTQSPAIMSASPGEKVTMTCSASSSVNYMFWYQQKPGSSPRLLIYDTSNLASGVPVRFSGSGSGTSYSLTISRLEAEDAATYYCQQWTSYPLTFGAGTKLDLKR
B2: the EC50 in assay [1] stood at 0.025 nM; in assay [2], 0.04 nM.

B3: C121 (antibody, human IgG1, kappa, V domains shown)
VH: EVQLQQSGPEVVKPGASVKISCKASGNTFTDYFINWVKQSHGKSLEWIGDINPDNGGTNYNQKFKGKATLTVDKSSGTAFMGLRSLTSEDSAVYYCATLYFDYWGQGTSLTVSS
VL: DIVMTQSPSSLSVSAGEKVTMSCKSSQSLLNSGNQKNYLAWYQQKPGQPPKLLIYGASTRESGVPDRFTGSGSGTDFTLTISSVQAEDLAVYYCQNAHSSPYTFGGGTRLEIKR
Take B3: the EC50 in assay [1] stood at 0.037 nM; in assay [2] it was 0.055 nM.

B4: C122 (antibody, human IgG1, kappa, V domains shown)
VH: EVQLQQSGPEVVKPGASVKISCKASGNTFTDYFINWVKQRHGKSLEWIGDVNPDNGGTNYNQKFKGKATLTVDKSSGTAFMGLRSLTSEDSAVYYCATLFFDSWGQGTTLTVSS
VL: DIVMTQSPSSLNVSAGEKVTMSCKSSQSLLNSGNQKNYLAWYQQKPGQPPKLLIYGASTRESGVPDRFTGSGSGTDFTLTISSVQAEDLALYYCQNAHSSPYTFGGGTKLEIKR
Consider B4, for which the results for the EC50 in assay [1] and in assay [2] were 0.03 nM and 0.031 nM, respectively.

B5: C119 (antibody, human IgG1, kappa, V domains shown)
VH: EVKLVESGGGLVQPGGSLKLSCVASGFTFNTYIMSWVRQTPEKRLELVADISNSGGNTYYSDTVKGRFTISRDNAKNTLYLQMSSLKSEDTAMYYCARPDNWDPFVYWGQGTLVTVSA
VL: DIQMTQSSSSFSVSLGDRVTITCKASEDIYARLAWYQQKPGNAPRLLISGATSLETGVPSRFSGSGSGKNYTLSITSLQTEDVGTYYCQQHWSTPWTFGGGTNLEIKR
Consider B5, for which the EC50 stood at 0.025 nM in assay [1] and 0.08 nM in assay [2].

B6: C118 (antibody, human IgG1, kappa, V domains shown)
VH: QVQLQQPGAELVKPGTSVKLSCKAAGYIFTSSWMHWVKQRPGQGLEWIGEINPSDGRTNYNEKFKNKATLTVDHSSSTAYMQLSSLTSEDSAVYYCASNADRAYYTMDYWGQGTSVTVSS
VL: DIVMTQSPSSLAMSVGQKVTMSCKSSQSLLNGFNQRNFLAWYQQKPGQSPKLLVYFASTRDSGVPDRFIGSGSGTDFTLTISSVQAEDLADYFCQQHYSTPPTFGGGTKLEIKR
Turning to B6, the results for the EC50 in assay [1] and in assay [2] were 0.029 nM and 0.057 nM, respectively.

B7: C112 (antibody, human IgG1, kappa, V domains shown)
VH: QVQLQQPGAELVKPGASVKLSCKASGYTFTSSWMHWVKQRPGQGLEWIGEINPSDGRTNYNEKFKSKATLTVDHSSSTAYMQLSSLTSEDSAVYYCASNADRAYYTMDYWGQGTSVTVSS
VL: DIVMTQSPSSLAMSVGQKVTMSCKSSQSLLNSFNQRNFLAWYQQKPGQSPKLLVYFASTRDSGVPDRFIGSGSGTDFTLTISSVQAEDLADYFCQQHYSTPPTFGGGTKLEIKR
In the case of B7, the EC50 in assay [1] was found to be 0.028 nM; in assay [2], 0.055 nM.

B8: C116 (antibody, human IgG1, kappa, V domains shown)
VH: EVKLVESGGGLVQPGGSLKLSCAVSGFTFSSYTMSWVRQTPEKRLELVAKISNSGGSTNYPDTVKGRFTLSRDNVKNTLYLQMSSLKSEDTAIYYCTRYSWDVYAMDYWGQGTSVTVSS
VL: DIQMTQSPASLSASVGETVIITCRASENIYSYLAWYQQKQGKSPHLLVYNAETLVEGVPSRFSGSGSATQFSLKINSLQPEDFGTYYCQHHYGDPTFGGGTKLEIKR
For B8, the half-maximal effective concentration (EC50) in assay [1] turned out to be 0.025 nM; in assay [2] it was 0.061 nM.

B9: C61 (antibody, human IgG1, kappa, V domains shown)
VH: DVQLQESGPGLVKPSQSLSLTCSVTGYSITSNYYWNWIRQFPGNNLEWMGYISSDGTNNYNPSLRNRISITRDTSKNQFFLKLNSVTTEDTATYYCARGLRYGPWGQGTTLTVSS
VL: QLILTQSSSASFSLGASAKLTCTLSSQHSTYTIEWYQQQPLKAPKYVMEVKNDGSHRTGDGIPDRFSGSSSGADRYLSISNIQPEDEAIYICGVGDINNYIFGGGTKVTVLR
In turn, B9 returned an EC50 in assay [1] of 0.089 nM.

B10: C43 (antibody, human IgG1, kappa, V domains shown)
VH: QVQLQQPGAELVRPGTSVKLSCKASGNTFTTYWMHWVKQRPGQGHEWIGVIDASDSNTKYNQKFKGKATLTVDTSSSTAYMQLSSLTSEDSAVYYCARYYSGSSYGLDYWGQGTTLTVSS
VL: DIQMTQTASSLSASLGDRVTISCRASQDISNYLNWYQQKPDGTVKLLIYYTSRLHSGVPSRFSGSGSGTDYSLTITNLEQEDIASYFCQQGNMFPPTFGGGTKLEIKR
Regarding B10, the figures for the EC50 in assay [1] and in assay [2] were 0.051 nM and 0.044 nM, respectively.

B11: C69 (antibody, human IgG1, kappa, V domains shown)
VH: EVQLQQSGPVLVKPGASVKMSCKASGYRLTDYYMHWVKQSHGKSLEWIGIINPYNGGTSYNQKFKGKATLTVDKSSSTAYMELNSLTSDDSAVYYCARDSSNVGNDMDYWGQGTSVSVSS
VL: DIQMTQTTSSLSASLGDRVTISCRASQDISNYLNWYLQKPDGTVKLLIYYSSRLHSGVPSRFSGSGSGTDYSLTINNLEQEDIATYFCQQGNTLPRTFGGGTKLEIRR
With B11, the EC50 amounted to 0.023 nM in assay [1] and 0.051 nM in assay [2].

B12: C25 (antibody, human IgG1, kappa, V domains shown)
VH: QVQLQQPGAELVRPGTSVKLSCKASGNTFTSYWMHWVKQRPGQGHEWIGVIDASDSKTKYNQKFKGKATLTVDTSSSTAYMQLSSLTSEDSAVYYCARYYSGSSYGLDYWGQGTTLTVSS
VL: DIQMTQTASSLSASLGDRVTISCRASQDISNYLNWYQQKPDGTVKLLIYYTSRLHSGVPSRFSGSGSGTDYSLTISNLEQEDIATYFCQQGNTLPPTFGGGTKLEIKR
Turning to B12, the EC50 in assay [1] was determined as 0.052 nM; in assay [2], 3.8 nM.

B13: C110 (antibody, human IgG1, kappa, V domains shown)
VH: EVQLQQSGAELAKPGASVKLSCTVSGFNIKDTYIHWVKQRPEQGLEWIGGIDPAIGNTVSASKFQDKATITADTSSSTAYMQLSSLTSGDTAVYYCARERVHSNTLYYAMDYWGQGTSVTVSS
VL: DIVLTQSPASLAVSLGQRATISCRASKSVSISGYSYMHWYQQKPGQPPKLLIYLASNLESGVPARFSGSGSGTDFTLNIHPVEEEDAATYYCQHSRELPPTFGGGTKLEIKR
Regarding B13, the values for the EC50 in assay [1] and in assay [2] were 0.032 nM and 0.034 nM, respectively.

B14: C51 (antibody, human IgG1, kappa, V domains shown)
VH: QVQLQQSGAELVRPGASVTLSCKASGYTFTDYEMHWVKQTPVHGLEWIGAIDPETGGTAYNQKFKGKAILTADKSSSTAYMELRSLTSEDSAVYYCTRWITTVVATLYYFDYWGQGTTLTVSS
VL: DIVMTQSQKFMSTSVGDRVSITCKASQNVRTAVAWYQQKPGQSPKALIYLASNRHTGVPDRFTGSGSGTDFTLTISNVQSEDLADYFCLQHWNYPLTFGAGTKLELKR
For the molecule B14, the figures for the EC50 in assay [1] and in assay [2] were 0.228 nM and 0.224 nM, respectively.

B15: C33 (antibody, human IgG1, kappa, V domains shown)
VH: QVQLQQSGPELVKPGASVKISCKASGYTFTDYYINWVKQRPGQGLEWIGWIFPGSGSTYYNEKFKGKATPTVDKYSSTAYMLLSSLTSEDSAVYFCAREDYFDRGDCWGQGTSVTVSS
VL: QIVLTQSPAIMSASPGEKVTMTCSASSSINYMHWYQQKPGTSPKRWIYDTSKLASGVPARFSGSGSGTSYSLTISSMEAEDAATYYCHQRSSYPFTFGSGTKLEIKR
For B15, in assay [1], a half-maximal response (EC50) required 1.3 nM.

B16: C117 (antibody, human IgG1, kappa, V domains shown)
VH: QVQLQQSGAELARPGASVKMSCKASGYTFTDYWMQWVKQRPGQGLEWIGAIFPGNGETRDTQKFKGRATLTADRSSSTAYIQLSSLTSEDSAVYYCATFNNYLDYWGQGTTLTVAS
VL: QIVLTQSPAIMSASPGEKVTMTCSASSSVSYMHWYQQKSGASPKRWIYDTSKLTSGVPARFSGSGSGTSYSLTISNMEAEDAATYYCQQWISNPYTFGGGTKLEIKR
B16: the EC50 stood at 0.041 nM in assay [1] and 0.045 nM in assay [2].

B17: C6 (antibody, human IgG1, kappa, V domains shown)
VH: QVHLHQSGPELVKPGASVKISCKASGYTFTAYYINWVKQRPGQGLEWIGWIFPGSDSTYYNEKFKGRATLTVDKSSSTAYMLLNSLTSEDSAVYFCARDGELRGPFDYWGQGTTLTVSS
VL: DIQMTQSPSSLSASLGGKVTITCKASQDINKYIAWYQHKPGKSPRLLIHYTSTLQAGIPSRFSGSGSGRDYSFSISNLEPEDSATYYCLQYDNLLTFGGGTKLEIKR
Turning to B17, the EC50 in assay [1] amounted to 0.055 nM; in assay [2], 0.058 nM.

B18: C44 (antibody, human IgG1, kappa, V domains shown)
VH: QVQLQQSGPELMKPGASLKISCKASGYTFTDSYINWVKQRPGQGLEWIGWIFPGSGSTYYNEKFKGTATLTVDKSSSTAYMLLSSLTSEDSAAYFCARDGGLRGPFDYWGQGTTLTVSS
VL: DIQMTQSPSSLSASLGGKVTITCKASQDINKYIAWYQHKPGKGPRLLIHYTSTLQSGIPSRFSGSGSGRDYFFSISNLESEDIATYYCLQYDHLLTFGGGTKLEIKR
In the case of B18, the EC50 was determined as 0.053 nM in assay [1] and 0.076 nM in assay [2].

B19: C45 (antibody, human IgG1, kappa, V domains shown)
VH: QVHLQQSGPDLVKPGVSVKISCKASGYTFTDYYINWVKQRPGQGLEWIGWIFPGSGTTYYNEKFKGKATLTVDKSSSTAYMLLSSLTSEDSAVYFCARDGGLRGPFDYWGQGTTLTVSS
VL: DIQMTQSPSSLSASLGGKVTITCKANQDINKYIAWYQYKPGKGPRLLIHYTSTLQPDIPSRFSGSGSGRDFSFSISNLEPEDIATYYCLQYDYLYTFGGGTKLEIKR
Take B19: the values for the EC50 in assay [1] and in assay [2] were 0.059 nM and 0.114 nM, respectively.

B20: C38 (antibody, human IgG1, kappa, V domains shown)
VH: QVQLQQSGAELMKPGASVKLSCKATGYTFTGYWIEWVKQRPGHGLEWIGEILPESGRTNYNEKFKGKATFTADTSSNTAYMQLSSLTTEDSAIYYCASLLFFDYWGQGTTLTVSS
VL: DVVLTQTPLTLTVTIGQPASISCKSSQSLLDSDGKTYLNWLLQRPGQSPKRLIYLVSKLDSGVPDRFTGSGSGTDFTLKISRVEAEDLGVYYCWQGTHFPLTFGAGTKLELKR
For the molecule B20, the EC50 in assay [1] was determined as 0.064 nM.

(Values after patent EP4644419A1 (Hangzhou Zhongmeihuadong Pharmaceutical Co., Ltd., dated 2025).)
